Experimental data: patent US20120027722A1

Legend:
[1] = target: soluble HCV E2 truncated at amino acid 661 (sE2661), His-tagged (Hepatitis C virus (isolate not stated)); assay: SPR (BIAcore), sE2
[2] = target: soluble HCV E2 truncated at amino acid 661 (sE2661), His-tagged (Hepatitis C virus (isolate not stated)); assay: SPR (BIAcore A100), antibody captured on anti-Fc chip, sE2 injected 1.56-50 nM, 1:1 Langmuir fit

Row | Kd [1] | Kd [2] | Substance
1 | 50 nM |  | AP33 Fab
2 |  | 5 to 8 nM | AP33 antibody (as used in Example 2)
